Numbering of substitutions follows the chain as printed.
B1: Rituxan (antibody)
VH: not shown
VL: QIVLSQSPAILSASPGEKVTMTCRASSSVSYIHWFQQKPGSSPKPWIYATSNLASGVPVRFSGSGSGTSYSLTISRVEAEDAATYYCQQWTSNPPTFGGGTKLEIKRTVAAPSVFIFPPSDEQLKSGTASVVCLLNNFYPREAKVQWKVDNALQSGNSQESVTEQDSKDSTYSLSSTLTLSKADYEKHKVYACEVTHQGLSSPVTKSFNRGEC
B2: HB1905 (bispecific antibody, human IgG1, kappa)
light 1: DIQMTQTTSSLSASLGDRVTISCRASQDISKYLNWYQEKPDGTVKLLIYHTSRLHSGVPSRFSGSGSGTDYSLTISNLEQEDIATYFCQQGNTLPYTFGGGTKLEIKRTVAAPSVFIFPPSDEQLKSGTASVKCLLNNFYPREAKVQWKVDNALQSGNSQESVTEQDSKDSTYSLSSTLTLSKADYEKHKVYACEVTHQGLSSPVTKSFNRGEC
heavy 1: EVKLQESGPGLVAPSQSLSVTCTVSGVSLPDYGVSWIRKPPRKGLEWLGVIWGSETTYYNSALKSRLTIIKDNSKSQVFLKMSSLQTDDTAIYYCAKHYYYGGSYAMDYWGQGTSVTVSSASTKGPSVFPLAPSSKSTSGGTAALGCLVKDYFPEPVTVSWNSGALTSGVHTFPAVLQSSGLYSLESVVTVPSSSLGTQTYICNVNHKPSNTKVDKKVEPKSCTDWSPYADQSIKVRISLKSALGDKAYEWNDNEMYLFRSSVAYAMRQYFLKVKNQMILFGEEDVRVANLKPRISFNFFVTAPKNVSDIIPRTEVEKAIRMSRSRINDAFRLNDNSLEFLGIQPTLGPPNQPPVSTSTSPTRSMAPGAVHLPQPVSTRDKTHTCPPCPAPELLGGPSVFLFPPKPKDTLMISRTPEVTCVVVDVSHEDPEVKFNWYVDGVEVHNAKTKPREEQYNSTYRVVSVLTVLHQDWLNGKEYKCKVSNKALPAPIEKTISKAKGQPREPQVCTLPPSRDELTKNQVSLSCAVKGFYPSDIAVEWESNGQPENNYKTTPPVLDSDGSFFLVSKLTVDKSRWQQGNVFSCSVMHEALHNRFTQKSLSLSPG
light 2: QVQLQQPGAELVKPGASVKMSCKASGYTFTSYNMHWVKKTPGRGLEWIGAIYPGNGDTSYNQKFKGKATLTADKSSSTAYMQLSSLTSEDSAVYYCARSTYYGGDWYFNVWGAGTLVTVSSASVAAPSVFIFPPSDEQLKSGTASVECLLNNFYPREAKVQWKVDNALQSGNSQESVTEQDSKDSTYSLSSTLTLSKADYEKHKVYACEVTHQGLSSPVTKSFNRGEC
heavy 2: not shown
notes: also called anti-CD20/anti-CD19 bispecific GEM-DIMER
B3: HB1906 (bispecific antibody, human IgG1, kappa)
light 1: B2 light 1
heavy 1: B2 heavy 1
light 2: B2 light 2 with K39E
heavy 2: not shown
notes: as for B2
B4: B19c66 (antibody, human IgG1, kappa)
light: not shown
heavy: not shown
chain: CPPCPAPELLGGPSVFLFPPKPKDTLMISRTPEVTCVVVDVSHEDPEVKFNWYVDGVEVHNAKTKPREEQYNSTYRVVSVLTVLHQDWLNGKEYKCKVSNKALPAPIEKTISKAKGQPREPQVYVYPPSRDELTKNQVSLTCLVKGFYPSDIAVEWESNGQPENNYKTTPPVLDSDGSFALVSKLTVDKSRWQQGNVFSCSVMHEALHNHYTQKSLSLSPGK
B5: B19c66AAC9 (antibody, human IgG1, kappa)
light: not shown
heavy: QVQLQQSGAELVRPGSSVKISCKASGYAFSSYWMNWVKQRPGQGLEWIGQIWPGDGDTNYNGKFKGKATLTADESSSTAYMQLSSLASEDSAVYFCARRETTTVGRYYYAMDYWGQGTTVTVSSASTKGPSVFPLAPSSKSTSGGTAALGCLVKDYFPEPVTVSWNSGALTSGVHTFPAVLQSSGLYSLSSVVTVPSSSLGTQTYICNVNHKPSNTKVDKKVEPKSCDKTHTCPPCPAPKRRGGPSVFLFPPKPKDTLMISRTPEVTCVVVDVSHEDPEVKFNWYVDGVEVHNAKTKPREEQYNSTYRVVSVLTVLHQDWLNGKEYKCKVSNKALPAPIEKTISKAKGQPREPQVYVLPPSRDELTKNQVSLLCLVKGFYPSDIAVEWESNGQPENNYLTWPPVLDSDGSFFLYSKLTVDKSRWQQGNVFSCSVMHEALHNHYTQKSLSLSPGK
chain: B4 chain with L9D, L10E

Assays:
[1] = target: T1, CD64 FcRγI (human, UniProt P12314 16-288)
T1 sequence (P12314 16-288 limits assumed): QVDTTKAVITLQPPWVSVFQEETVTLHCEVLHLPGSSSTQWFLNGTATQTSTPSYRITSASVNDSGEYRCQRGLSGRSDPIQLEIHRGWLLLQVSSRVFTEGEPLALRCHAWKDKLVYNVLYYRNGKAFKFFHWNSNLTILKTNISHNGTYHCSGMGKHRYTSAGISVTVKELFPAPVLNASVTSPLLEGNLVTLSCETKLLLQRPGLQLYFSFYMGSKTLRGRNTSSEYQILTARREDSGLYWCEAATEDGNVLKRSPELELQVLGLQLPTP

[2] = target: T2, CD32a 131R FcRγIIa (human, UniProt P12318 36-218)
T2 sequence (looked up): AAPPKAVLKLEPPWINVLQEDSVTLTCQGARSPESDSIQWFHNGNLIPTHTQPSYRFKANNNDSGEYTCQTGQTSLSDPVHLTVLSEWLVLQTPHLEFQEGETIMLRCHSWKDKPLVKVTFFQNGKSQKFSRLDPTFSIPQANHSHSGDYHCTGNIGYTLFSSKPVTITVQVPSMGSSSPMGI

[3] = target: T3, CD16a 158V FcRγIIIa (human, UniProt P08637 17-208)
T3 sequence (P08637 17-208 F176V limits assumed): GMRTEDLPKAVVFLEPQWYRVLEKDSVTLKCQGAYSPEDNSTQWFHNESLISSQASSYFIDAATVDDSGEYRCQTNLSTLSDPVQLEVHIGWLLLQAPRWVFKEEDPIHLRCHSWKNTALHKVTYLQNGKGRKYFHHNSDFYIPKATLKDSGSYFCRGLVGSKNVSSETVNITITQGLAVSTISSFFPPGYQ

[4] = target: T4, CD32b/c FcRγIIb (human, UniProt P31994 46-217)
T4 sequence (looked up): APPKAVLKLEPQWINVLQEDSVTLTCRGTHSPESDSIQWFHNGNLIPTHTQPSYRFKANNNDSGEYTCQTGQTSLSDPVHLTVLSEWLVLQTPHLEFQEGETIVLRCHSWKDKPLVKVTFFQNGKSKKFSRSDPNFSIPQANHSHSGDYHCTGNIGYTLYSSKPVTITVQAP

[5] = target: T5, CD32a 131H FcRγIIa (human, UniProt P12318 36-218)
T5 sequence (looked up): T2 sequence (looked up) with R132H

[6] = target: CD16b FcRγIIIb (human, UniProt O75015 20-208)
Sequence of CD16b FcRγIIIb (O75015 20-208 limits assumed): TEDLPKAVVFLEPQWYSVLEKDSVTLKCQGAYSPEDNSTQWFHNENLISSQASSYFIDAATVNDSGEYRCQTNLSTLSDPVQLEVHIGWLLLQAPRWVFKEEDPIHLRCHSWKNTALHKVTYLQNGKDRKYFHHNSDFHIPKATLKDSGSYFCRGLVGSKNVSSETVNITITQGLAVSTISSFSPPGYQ

[7] = target: T1, CD64 FcRγI; test: SPR Carterra LSA
[8] = target: T6, Recombinant CD20 (ACROBiosystems Cat #CD0-H52H3) (UniProt P11836 1-297); test: SPR Carterra LSA
T6 construct: also called monovalent CD20
T6 sequence: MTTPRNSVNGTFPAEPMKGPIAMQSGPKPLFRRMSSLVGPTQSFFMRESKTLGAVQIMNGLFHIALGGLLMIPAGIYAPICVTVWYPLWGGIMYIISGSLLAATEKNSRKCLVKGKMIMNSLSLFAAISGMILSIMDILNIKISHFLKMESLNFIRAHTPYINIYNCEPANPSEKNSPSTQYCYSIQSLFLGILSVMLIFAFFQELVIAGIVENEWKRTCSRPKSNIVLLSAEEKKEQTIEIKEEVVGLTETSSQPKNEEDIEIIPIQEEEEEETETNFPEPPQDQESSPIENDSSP

[9] = target: T2, CD32a 131R FcRγIIa; test: SPR Carterra LSA
[10] = target: T3, CD16a 158V FcRγIIIa; test: SPR Carterra LSA
[11] = target: T7, Recombinant CD19 (ACROBiosystems Cat #CD9-H52H2) (UniProt P15391 20-291); test: SPR Carterra LSA
T7 construct: also called monovalent CD19
T7 sequence: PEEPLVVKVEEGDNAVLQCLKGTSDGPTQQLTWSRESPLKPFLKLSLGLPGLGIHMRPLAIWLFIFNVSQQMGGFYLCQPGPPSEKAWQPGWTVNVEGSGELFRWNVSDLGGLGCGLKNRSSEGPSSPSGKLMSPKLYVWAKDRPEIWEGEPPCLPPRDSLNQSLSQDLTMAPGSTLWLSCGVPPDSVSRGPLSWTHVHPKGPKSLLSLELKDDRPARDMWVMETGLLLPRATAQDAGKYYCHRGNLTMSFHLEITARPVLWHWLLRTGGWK

[12] = target: T8, CD19 (Table 9) (UniProt P15391 20-291)
T8 sequence (looked up): T7 sequence

| Binder | binding result [7] | binding result [8] | binding result [9] | binding result [10] | binding result [11] | Kd [12] | other results |
| --- | --- | --- | --- | --- | --- | --- | --- |
| B1 | – | – | – | – | – | – | Kd [1]: 0.0528 µM; Kd [2]: 1.25 µM; Kd [3]: 0.715 µM; Kd [4]: 1.52 µM; Kd [5]: 0.892 µM; Kd [6]: 1.53 µM |
| B2 | binds | binds | binds | binds | binds | – | – |
| B3 | binds | binds | binds | binds | binds | – | – |
| B4 | – | – | – | – | – | 0.0218 µM | – |
| B5 | – | – | – | – | – | 0.021 µM | – |

Source: patent US20250092160A1 (published 2025)
